Reference: patent US20210206841A1 (RESEARCH INSTITUTE AT NATIONWIDE CHILDREN S HOSPITAL, published 2021)

T1: tip-chimeric peptide IhfA5-mIhfB4NTHI (nontypeable Haemophilus influenzae …)
T1 construct: also called IHF(NTHI) tip chimeric peptide; IHFNTHI tip chimeric peptide
T1 peptide: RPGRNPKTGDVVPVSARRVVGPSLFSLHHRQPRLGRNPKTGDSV

T2: native IHFNTHI (integration host factor of nontypeable Haemophilus influenzae) (nontypeable Haemophilus influenzae …, UniProt P43723 1-96; P43724 1-94)
T2 construct: also called NTHI IHF
T2 sequence 1: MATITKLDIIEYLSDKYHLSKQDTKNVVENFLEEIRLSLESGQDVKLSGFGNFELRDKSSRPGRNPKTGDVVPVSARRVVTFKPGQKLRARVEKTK
T2 sequence 2: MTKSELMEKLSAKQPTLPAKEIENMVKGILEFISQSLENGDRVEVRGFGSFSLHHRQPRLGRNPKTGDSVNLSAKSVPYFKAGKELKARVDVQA

T3: tail-chimeric peptide IhfA3-IhfB2NTHI (nontypeable Haemophilus influenzae …)
T3 construct: also called IHF(NTHI) tail chimeric peptide; IHFNTHI tail chimeric peptide
T3 peptide: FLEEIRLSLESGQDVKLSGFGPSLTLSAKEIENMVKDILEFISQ

B1: humanized anti-tip monoclonal antibody, heavy chain SEQ ID NO: 3 and light chain SEQ ID NO: 7 (antibody, V domains shown)
VH: EVKLVQSGAEVKKPGASVKVSCKASGFTFRTYAMSWVRQAPGQRLEWVATIGSDRRHTYYPDKFQGRVTITRDNAKNTLYMELSSLRSEDTAVYYCVGPYDGYYGEFDYWGQGTLVTVSS
VL: DVVMTQSPLSLPVTLGQPASISCRSSQSLLDSDGKTFLNWLQQRPGQSPRRLIYLVSKLDSGVPDRFSGSGSGTDFTLKISRVEAEDVGVYYCWQGTHFPYTFGQGTKLEIKR
notes: also called H10212 (1F8.F1 Humanized HC3) + L10210 (1F8.F1 Humanized LC1)
B2: humanized anti-tip monoclonal antibody, heavy chain SEQ ID NO: 3 and light chain SEQ ID NO: 9 (antibody, V domains shown)
VH: EVKLVQSGAEVKKPGASVKVSCKASGFTFRTYAMSWVRQAPGQRLEWVATIGSDRRHTYYPDKFQGRVTITRDNAKNTLYMELSSLRSEDTAVYYCVGPYDGYYGEFDYWGQGTLVTVSS
VL: DVVMTQSPDSLAVSLGERATINCKSSQSLLDSDGKTFLNWLQQKPGQPPKRLIYLVSKLDSGVPDRFSGSGSGTDFTLTISSLQAEDVAVYYCWQGTHFPYTFGQGTKLEIKR
notes: also called H10212 (1F8.F1 Humanized HC3) + L10212 (1F8.F1 Humanized LC3)
B3: humanized anti-tip monoclonal antibody, heavy chain SEQ ID NO: 1 and light chain SEQ ID NO: 7 (antibody, V domains shown)
VH: EVKLVESGGGLVQPGGSLRLSCAASGFTFRTYAMSWVRQAPGKGLEWVATIGSDRRHTYYPDSVKGRFTISRDNAKNTLYLQMNSLRAEDTAVYYCVGPYDGYYGEFDYWGQGTLVTVSS
VL: DVVMTQSPLSLPVTLGQPASISCRSSQSLLDSDGKTFLNWLQQRPGQSPRRLIYLVSKLDSGVPDRFSGSGSGTDFTLKISRVEAEDVGVYYCWQGTHFPYTFGQGTKLEIKR
notes: also called HuTipMab; TP-21949
B4: humanized anti-tip monoclonal antibody, heavy chain SEQ ID NO: 2 and light chain SEQ ID NO: 8 (antibody, V domains shown)
VH: EVQLVESGGGLVQPGGSLRLSCAASGFTFRTYAMSWVRQAPGKGLEWVATIGSDRRHTYYPDSVKGRFTISRDNSKNTLYLQMNSLRAEDTAVYYCVGPYDGYYGEFDYWGQGTLVTVSS
VL: DVVMTQSPLSLPVTLGQPASISCRSSQSLLDSDGKTFLNWLQQRPGQSPRRLIYLVSKRDSGVPDRFSGSGSGTDFTLKISRVEAEDVGVYYCWQGTHFPYTFGQGTKLEIKR
notes: also called H10211 (1F8.F1 Humanized HC2) + L10211 (1F8.F1 Humanized LC2)
B5: humanized anti-tip monoclonal antibody, heavy chain SEQ ID NO: 2 and light chain SEQ ID NO: 7 (antibody, V domains shown)
VH: EVQLVESGGGLVQPGGSLRLSCAASGFTFRTYAMSWVRQAPGKGLEWVATIGSDRRHTYYPDSVKGRFTISRDNSKNTLYLQMNSLRAEDTAVYYCVGPYDGYYGEFDYWGQGTLVTVSS
VL: DVVMTQSPLSLPVTLGQPASISCRSSQSLLDSDGKTFLNWLQQRPGQSPRRLIYLVSKLDSGVPDRFSGSGSGTDFTLKISRVEAEDVGVYYCWQGTHFPYTFGQGTKLEIKR
notes: also called H10211 (1F8.F1 Humanized HC2) + L10210 (1F8.F1 Humanized LC1)
B6: humanized anti-tip monoclonal antibody, heavy chain SEQ ID NO: 1 and light chain SEQ ID NO: 8 (antibody, V domains shown)
VH: EVKLVESGGGLVQPGGSLRLSCAASGFTFRTYAMSWVRQAPGKGLEWVATIGSDRRHTYYPDSVKGRFTISRDNAKNTLYLQMNSLRAEDTAVYYCVGPYDGYYGEFDYWGQGTLVTVSS
VL: DVVMTQSPLSLPVTLGQPASISCRSSQSLLDSDGKTFLNWLQQRPGQSPRRLIYLVSKRDSGVPDRFSGSGSGTDFTLKISRVEAEDVGVYYCWQGTHFPYTFGQGTKLEIKR
notes: also called H10210 (1F8.F1 Humanized HC1) + L10211 (1F8.F1 Humanized LC2)
B7: humanized anti-tip monoclonal antibody, heavy chain SEQ ID NO: 1 and light chain SEQ ID NO: 9 (antibody, V domains shown)
VH: EVKLVESGGGLVQPGGSLRLSCAASGFTFRTYAMSWVRQAPGKGLEWVATIGSDRRHTYYPDSVKGRFTISRDNAKNTLYLQMNSLRAEDTAVYYCVGPYDGYYGEFDYWGQGTLVTVSS
VL: DVVMTQSPDSLAVSLGERATINCKSSQSLLDSDGKTFLNWLQQKPGQPPKRLIYLVSKLDSGVPDRFSGSGSGTDFTLTISSLQAEDVAVYYCWQGTHFPYTFGQGTKLEIKR
notes: also called H10210 (1F8.F1 Humanized HC1) + L10212 (1F8.F1 Humanized LC3)
B8: humanized anti-tip monoclonal antibody, heavy chain SEQ ID NO: 2 and light chain SEQ ID NO: 9 (antibody, V domains shown)
VH: EVQLVESGGGLVQPGGSLRLSCAASGFTFRTYAMSWVRQAPGKGLEWVATIGSDRRHTYYPDSVKGRFTISRDNSKNTLYLQMNSLRAEDTAVYYCVGPYDGYYGEFDYWGQGTLVTVSS
VL: DVVMTQSPDSLAVSLGERATINCKSSQSLLDSDGKTFLNWLQQKPGQPPKRLIYLVSKLDSGVPDRFSGSGSGTDFTLTISSLQAEDVAVYYCWQGTHFPYTFGQGTKLEIKR
notes: also called H10211 (1F8.F1 Humanized HC2) + L10212 (1F8.F1 Humanized LC3)
B9: humanized anti-tail monoclonal antibody, heavy chain SEQ ID NO: 4 and light chain SEQ ID NO: 12 (antibody, V domains shown)
VH: EVQLVESGGGLVKPGGSLRLSCAASGFTFSRYGMSWVRQAPGKGLEWVATISSGGSYTYYTDSVKGRFTISRDNAKNSLYLQMNSLRAEDTAVYYCERHGGDGYWYFDVWGQGTMVTVSS
VL: DIVMTQSPATLSLSPGERATLSCRASQDISNYLNWYQQKPGQAVRLLIYYTSRLHSGIPARFSGSGSGTDYTLTISSLEPEDFAVYFCQQGNPLRTFGGGTKVEIKR
notes: also called H10213 (11E7.C7 Humanized HC1) + L10215 (11E7.C7 Humanized LC3)

Experiments:
[1] = biological target: T1, tip-chimeric peptide IhfA5-mIhfB4NTHI; assay: SPR Biacore 3000, peptide immobilized, HuMab as analyte
[2] = biological target: T1, tip-chimeric peptide IhfA5-mIhfB4NTHI; assay: direct ELISA #2, peptide coated (curves reaching equilibrium)
[3] = biological target: T2, native IHFNTHI (integration host factor …); assay: SPR Biacore 3000, IHFNTHI immobilized, HuMab as analyte
[4] = biological target: T2, native IHFNTHI (integration host factor …); assay: SPR Biacore 3000, HuMab immobilized, IHFNTHI as analyte
[5] = biological target: T1, tip-chimeric peptide IhfA5-mIhfB4NTHI; assay: SPR Biacore 3000, HuMab immobilized, peptide as analyte
[6] = biological target: T1, tip-chimeric peptide IhfA5-mIhfB4NTHI; assay: direct ELISA #1, peptide coated (curves not reaching equilibrium)
[7] = biological target: T3, tail-chimeric peptide IhfA3-IhfB2NTHI; assay: SPR Biacore 3000, peptide immobilized, HuMab as analyte
[8] = biological target: T3, tail-chimeric peptide IhfA3-IhfB2NTHI; assay: direct ELISA #2, peptide coated (curves reaching equilibrium)
[9] = biological target: T3, tail-chimeric peptide IhfA3-IhfB2NTHI; assay: direct ELISA #1, peptide coated (curves not reaching equilibrium)

Binder	Kd [1]	koff [1]	kon [1]	EC50 [2]	Kd [3]	koff [3]	kon [3]	Kd [4]	koff [4]	kon [4]	Kd [5]	koff [5]	kon [5]	EC50 [6]	Kd [7]	koff [7]	kon [7]	EC50 [8]	EC50 [9]
B1	8 nM	0.0004 s⁻¹	48000 M⁻¹ s⁻¹	0.0858 µg/mL	825 nM	0.00011 s⁻¹	140 M⁻¹ s⁻¹	6 nM	0.0004 s⁻¹	66000 M⁻¹ s⁻¹	29 nM	0.0016 s⁻¹	54000 M⁻¹ s⁻¹	0.075 µg/mL					
B2	3 nM	0.00021 s⁻¹	79000 M⁻¹ s⁻¹	0.111 µg/mL	3400 nM	0.016 s⁻¹	4600 M⁻¹ s⁻¹	1600 nM	0.0027 s⁻¹	1700 M⁻¹ s⁻¹	200 nM	0.0019 s⁻¹	9500 M⁻¹ s⁻¹	0.035 µg/mL					
B3	7 nM	0.00022 s⁻¹	31000 M⁻¹ s⁻¹	0.0704 µg/mL	17 nM	9e-05 s⁻¹	5400 M⁻¹ s⁻¹	10 nM	1.4e-05 s⁻¹	1400 M⁻¹ s⁻¹	76 nM	0.00034 s⁻¹	4500 M⁻¹ s⁻¹	0.06 µg/mL					
B4	13 nM	0.00028 s⁻¹	22000 M⁻¹ s⁻¹	0.0402 µg/mL	354 nM	0.00015 s⁻¹	420 M⁻¹ s⁻¹	9 nM	0.00059 s⁻¹	70000 M⁻¹ s⁻¹	257 nM	7.7e-05 s⁻¹	300 M⁻¹ s⁻¹	0.055 µg/mL					
B5	144 nM	0.0026 s⁻¹	18000 M⁻¹ s⁻¹	0.062 µg/mL	4400 nM	0.0014 s⁻¹		0.6 nM	0.0004 s⁻¹	640000 M⁻¹ s⁻¹	527 nM	0.00015 s⁻¹	280 M⁻¹ s⁻¹	0.049 µg/mL					
B6	0.3 nM	1.1e-05 s⁻¹	42000 M⁻¹ s⁻¹	0.0644 µg/mL	40 nM	0.006 s⁻¹	150000 M⁻¹ s⁻¹	0.2 nM	0.00032 s⁻¹	1.4e+06 M⁻¹ s⁻¹	21 nM	0.00037 s⁻¹	17000 M⁻¹ s⁻¹	0.066 µg/mL					
B7	0.3 nM	1.3e-05 s⁻¹	40000 M⁻¹ s⁻¹	0.055 µg/mL	24 nM	0.16 s⁻¹	6.5e+06 M⁻¹ s⁻¹	0.6 nM	0.00037 s⁻¹	630000 M⁻¹ s⁻¹	152 nM	0.00038 s⁻¹	2500 M⁻¹ s⁻¹	0.032 µg/mL					
B8	4 nM	1.2e-05 s⁻¹	3700 M⁻¹ s⁻¹	0.0453 µg/mL	125 nM	0.0017 s⁻¹		62 nM	0.00045 s⁻¹	7200 M⁻¹ s⁻¹	23 nM	7.4e-05 s⁻¹	3500 M⁻¹ s⁻¹	0.027 µg/mL					
B9															5.1 nM	0.00056 s⁻¹	110000 M⁻¹ s⁻¹	0.0404 µg/mL	0.012 µg/mL
